Reference: patent US12240882B2, “Fusion proteins comprising an engineered knottin peptide and uses thereof” (The Board of Trustees of the Leland Stanford Junior …, priority 2010, dated 2025)
Numbering of substitutions follows the chain as printed. “Also recorded” adds a separate entry of the source.

T1: Gas6 (Homo sapiens, UniProt Q14393)
T1 sequence (Q14393 31-678): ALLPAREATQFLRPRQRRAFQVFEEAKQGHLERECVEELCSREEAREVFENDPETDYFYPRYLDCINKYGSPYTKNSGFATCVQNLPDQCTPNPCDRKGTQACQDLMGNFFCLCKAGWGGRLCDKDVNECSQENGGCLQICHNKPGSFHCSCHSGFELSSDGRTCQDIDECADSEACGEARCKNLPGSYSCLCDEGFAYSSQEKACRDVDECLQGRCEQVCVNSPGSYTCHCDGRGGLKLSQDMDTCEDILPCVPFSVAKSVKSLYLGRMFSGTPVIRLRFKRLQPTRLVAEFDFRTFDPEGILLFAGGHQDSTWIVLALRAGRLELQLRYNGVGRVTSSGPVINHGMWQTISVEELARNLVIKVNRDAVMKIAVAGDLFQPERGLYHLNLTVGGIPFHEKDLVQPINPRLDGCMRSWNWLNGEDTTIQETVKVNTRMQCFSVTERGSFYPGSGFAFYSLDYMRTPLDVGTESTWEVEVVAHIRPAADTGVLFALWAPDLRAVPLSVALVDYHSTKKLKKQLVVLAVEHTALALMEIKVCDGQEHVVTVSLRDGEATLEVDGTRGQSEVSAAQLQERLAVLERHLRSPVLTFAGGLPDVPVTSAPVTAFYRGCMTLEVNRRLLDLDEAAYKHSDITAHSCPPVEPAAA

B1: 2.5D-Fc: EETI-based knottin 2.5D fused to Fc domain of mouse Ig2a (protein)
chain: GCPQGRGDWAPTSCKQDSDCRAGCVCGPNGFCGEPRGPTIKPCPPCKCPAPNLLGGPSVFIFPPKIKDVLMISLSPIVTCVVVDVSEDDPDVQISWFVNNVEVHTAQTQTHREDYNSTLRVVSALPIQHQDWMSGKEFKCKVNNKDLPAPIERTISKPKGSVRAPQVYVLPPPEEEMTKKQVTLTCMVTDFMPEDIYVEWTNNGKTELNYKNTEPVLDSDGSYFMYSKLRVEKKNWVERNSYSCSVVHEGLHNHHTTKSFSRTPGK
B2: 2.5F-Fc: EETI-based knottin 2.5F fused to Fc domain of mouse Ig2a (protein)
chain: B1 chain with Q4R, G5P, W9N, A10P, T12L, S13T, R21L
B3: EETI 2.5D-Axl: EETI 2.5D directly fused to N-terminus of wt Axl Ig1 (amino acids 21-132), SEQ ID NO: 84 (protein)
chain: GCPQGRGDWAPTSCSQDSDCLAGCVCGPNGFCGSRGTQAEESPFVGNPGNITGARGLTGTLRCQLQVQGEPPEVHWLRDGQILELADSTQTQVPLGEDEQDDWIVVSQLRITSLQLSDTGQYQCLVFLGHQTFVSQPGYVGLEGLP

Tests used:
[1] = Gel filtration chromatography of knottin-Fc; assay type: physicochemical
PC3 cells = experiment: Inhibition of PC3 cell adhesion to vitronectin by knottin-Fc proteins; assay type: cell-based; conditions: knottin-Fc fusions, FIG. 10
Protocol: Negative control is an irrelevant protein.
In another tumor model, the ability of the knottin-Fc proteins to inhibit PC3 cell adhesion to the extracellular matrix (ECM) protein vitronectin was analyzed. […] As the inhibition of integrin-ECM adhesion induces caspase-mediated apoptosis, this biological mechanism will be explored in future studies.

sk0v3 cells = experiment: Binding of knottin-Fc proteins to sk0v3 cells; conditions: measured against wild-type EETII-Fc
Protocol: The binding of the knottin-Fc proteins to tumor cell lines were then measured.

αvβ3 integrin [2] = target: T2, αvβ3 integrin (Homo sapiens, UniProt P05106+P06756); experiment: Binding of soluble EETI 2.5D-Axl to K562-αvβ3 cells (flow cytometry); conditions: soluble protein from Pichia pastoris
T2 sequence (P06756 31-889 limits assumed): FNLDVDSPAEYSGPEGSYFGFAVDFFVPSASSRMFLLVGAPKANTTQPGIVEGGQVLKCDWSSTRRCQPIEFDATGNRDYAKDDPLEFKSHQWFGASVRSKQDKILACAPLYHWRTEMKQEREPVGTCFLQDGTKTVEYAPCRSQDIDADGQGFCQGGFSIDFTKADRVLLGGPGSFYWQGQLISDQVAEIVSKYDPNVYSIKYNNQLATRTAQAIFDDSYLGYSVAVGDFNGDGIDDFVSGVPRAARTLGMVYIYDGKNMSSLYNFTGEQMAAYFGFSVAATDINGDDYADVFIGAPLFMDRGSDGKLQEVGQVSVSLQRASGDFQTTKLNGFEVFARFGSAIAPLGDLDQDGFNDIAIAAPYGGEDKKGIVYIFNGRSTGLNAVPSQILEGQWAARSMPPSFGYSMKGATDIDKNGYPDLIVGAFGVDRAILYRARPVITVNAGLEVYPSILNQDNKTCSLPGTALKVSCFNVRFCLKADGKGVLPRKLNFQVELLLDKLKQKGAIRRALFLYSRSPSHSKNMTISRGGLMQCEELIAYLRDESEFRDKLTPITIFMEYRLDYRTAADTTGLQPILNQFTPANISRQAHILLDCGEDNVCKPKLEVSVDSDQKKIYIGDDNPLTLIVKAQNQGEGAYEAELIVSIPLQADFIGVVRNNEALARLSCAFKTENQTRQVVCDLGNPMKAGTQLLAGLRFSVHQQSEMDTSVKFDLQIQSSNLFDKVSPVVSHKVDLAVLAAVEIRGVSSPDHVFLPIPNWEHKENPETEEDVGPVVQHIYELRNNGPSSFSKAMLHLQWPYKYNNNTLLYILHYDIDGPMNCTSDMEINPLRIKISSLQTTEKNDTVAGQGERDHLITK
T2 sequence (P06756 891-1048 partner limits assumed): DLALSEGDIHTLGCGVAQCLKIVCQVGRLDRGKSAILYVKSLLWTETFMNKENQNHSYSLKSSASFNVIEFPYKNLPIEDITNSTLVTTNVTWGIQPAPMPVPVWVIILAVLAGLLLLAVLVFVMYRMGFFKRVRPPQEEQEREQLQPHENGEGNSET
T2 sequence (P05106 27-788): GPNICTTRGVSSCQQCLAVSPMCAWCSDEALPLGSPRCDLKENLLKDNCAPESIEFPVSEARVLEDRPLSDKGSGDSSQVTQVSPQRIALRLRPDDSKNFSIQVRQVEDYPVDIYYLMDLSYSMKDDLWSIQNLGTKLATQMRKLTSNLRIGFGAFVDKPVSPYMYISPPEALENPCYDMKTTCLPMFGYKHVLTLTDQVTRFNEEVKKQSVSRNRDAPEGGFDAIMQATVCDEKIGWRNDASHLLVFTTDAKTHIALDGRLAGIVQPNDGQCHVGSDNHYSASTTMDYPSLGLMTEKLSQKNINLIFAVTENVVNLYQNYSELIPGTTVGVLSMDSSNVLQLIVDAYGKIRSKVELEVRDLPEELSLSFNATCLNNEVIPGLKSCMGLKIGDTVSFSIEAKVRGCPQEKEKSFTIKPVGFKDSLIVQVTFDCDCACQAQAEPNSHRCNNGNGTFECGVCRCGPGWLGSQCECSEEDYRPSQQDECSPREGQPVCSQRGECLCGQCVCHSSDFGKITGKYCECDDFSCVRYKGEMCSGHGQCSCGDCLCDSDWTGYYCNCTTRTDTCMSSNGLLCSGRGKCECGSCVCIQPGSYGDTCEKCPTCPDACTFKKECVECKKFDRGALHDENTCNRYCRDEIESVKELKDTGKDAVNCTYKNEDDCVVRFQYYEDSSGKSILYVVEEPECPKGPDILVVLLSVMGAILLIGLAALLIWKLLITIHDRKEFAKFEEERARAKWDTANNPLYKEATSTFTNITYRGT

αvβ3 integrin [3] = target: T2, αvβ3 integrin; experiment: cRGD competition of EETI 2.5D-Axl binding to K562-αvβ3 cells
αvβ3 integrin [4] = target: T2, αvβ3 integrin; experiment: Yeast display binding of EETI 2.5D-Axl fusion to soluble αvβ3 integrin; conditions: 20, 50 or 100 nM αvβ3 integrin
Gas6 [5] = target: T1, Gas6; experiment: Yeast display binding of EETI 2.5D-Axl fusion to Gas6
Gas6 [6] = target: T1, Gas6; experiment: Yeast display binding to Gas6 in presence of saturating αvβ3 integrin; conditions: 20 or 100 nM Gas6 with 200 nM αvβ3 integrin
[7] = circular dichroism
αvβ3 integrin [8] = target: T2, αvβ3 integrin; experiment: Yeast display binding to αvβ3 integrin in presence of saturating Gas6; conditions: 100 or 200 nM αvβ3 integrin with 100 nM Gas6

Molecule	tendency to aggregate [1]	inhibition of PC3 cell adhesion to vitronectin (PC3 cells)	affinity to sk0v3 cells (sk0v3 cells)	equilibrium binding to cells transfected to overexpress αvβ3 integrin (αvβ3 integrin [2])	binding of EETI 2.5D-Axl to K562-αvβ3 cells with molar excess of cRGD (αvβ3 integrin [3])	binding to soluble αvβ3 integrin (αvβ3 integrin [4])	binding to soluble αvβ3 integrin (αvβ3 integrin [4]; listed as 2.5D-Axl)	binding to Gas6 (Gas6 [5]; 0.2, 2 or 20 nM Gas6)	binding to Gas6 (Gas6 [5]; 0.2, 2 or 20 nM Gas6, listed as 2.5D-Axl)	binding to Gas6 in presence of saturating αvβ3 integrin (Gas6 [6])	binding to Gas6 in presence of saturating αvβ3 integrin (Gas6 [6]; listed as 2.5D-Axl)	Tm (° C.) [7] [°C]	melting temperature (Tm) [7] [°C]	binding to αvβ3 integrin in presence of saturating Gas6 (αvβ3 integrin [8])	binding to αvβ3 integrin in presence of saturating Gas6 (αvβ3 integrin [8]; listed as 2.5D-Axl)
B1	no tendency to aggregate	low nanomolar range	–	–	–	–	–	–	–	–	–	–	–	–	–
B2	–	low nanomolar range	greater affinity	–	–	–	–	–	–	–	–	–	–	–	–
B3	–	–	–	consistent with that previously determined for 2.5D	binding specifically to αvβ3 integrin	levels comparable to the mono-specific proteins; also recorded: affinities similar to its corresponding mono-specific components	matched that of 2.5D	levels comparable to the mono-specific proteins; also recorded: affinities similar to its corresponding mono-specific components	maintained wild-type Axl's affinity	not affected; also recorded: maintains affinity to Gas6	the same as when they were measured individually	52 ± 0.7	~52	not affected; also recorded: is not lost	the same as when they were measured individually
